{"source": "patent US20140363434A1", "about": "(COMPLIX, published 2014)", "key": {"[1]": {"biological_target": "T1, GST-tagged recombinant human MCL-1 (residues 172 to 327) (human, UniProt Q07820 172-327)", "T1 construct": "Produced in E. coli and purified by the GST tag; also called recombinant MCL-1", "T1 sequence (Q07820 172-327 limits assumed)": "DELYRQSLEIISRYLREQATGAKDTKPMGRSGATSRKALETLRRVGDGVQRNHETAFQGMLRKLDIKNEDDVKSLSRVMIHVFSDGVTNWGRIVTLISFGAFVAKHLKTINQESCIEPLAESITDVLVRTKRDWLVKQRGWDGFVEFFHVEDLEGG", "assay": "ELISA: Alphabody (500 nM) captured by coated anti-V5 antibody; five-fold dilutions of GST-MCL-1 detected with anti-GST antibody-HRP; OD 492/630 nm", "procedure": "(§1) Alphabody (500 nM) was captured by immobilized anti-V5 antibody (5 microg/ml) to a microtiterplate. Binding of five-fold dilutions of Glutathione S transferase (GST)-tagged recombinant BCL-2 family proteins MCL-1 (FIG. 26A), BCL-XL (FIG. 26B) and BCL-2a (FIG. 26C) was detected using a anti-GST antibody conjugated to Horse Radish Peroxidase. Plates were read at 492 nm and 630 nm.\n(§2) Maxisorp Nunc plates were coated with 100 microl anti-V5 antibody (5 microg/ml) in carbonate buffer pH 9.6 overnight at 4° C. The next day, the plates were washed 3 times with Tris Buffered Saline containing 0.05% Tween 20 (TBST) and blocked with TBS containing 0.1% BSA and 0.5% gelatin for 2 h at 37° C. […] Plates were washed 10 times with TBST and five-fold dilutions of Glutathione S transferase (GST) tagged recombinant BCL-2 family proteins (MCL-1, BCL-XL and BCL-2a) were added and further incubated for 2 h at RT while shaking. Binding of GST-tagged recombinant BCL-2 family proteins was detected using an anti-GST antibody conjugated to Horse Radish Peroxidase. Signals were developed by reacting with ortho-phenylenediamine and the reaction was stopped with 4 M H₂SO₄ when the OD reached a value between 2 and 3."}, "[2]": {"biological_target": "T1, GST-tagged recombinant human MCL-1 …", "assay": "ELISA: Alphabody (500 nM) captured by anti-V5 antibody, five-fold dilutions of GST-MCL-1, anti-GST-HRP detection; printed as 'binding affinity'", "procedure": "as §1, §2"}, "[3]": {"biological_target": "T2, GST-tagged recombinant human BCL-2 isoform alpha (BCL-2a) with a C-terminal deletion of 32 amino acids (human, UniProt P10415 1-207)", "T2 construct": "Produced in E. coli and purified by the GST tag; not shown: Glutathione S Transferase (GST) tag at the N-terminus", "T2 sequence (P10415 1-207, stated change not applied, form in doubt)": "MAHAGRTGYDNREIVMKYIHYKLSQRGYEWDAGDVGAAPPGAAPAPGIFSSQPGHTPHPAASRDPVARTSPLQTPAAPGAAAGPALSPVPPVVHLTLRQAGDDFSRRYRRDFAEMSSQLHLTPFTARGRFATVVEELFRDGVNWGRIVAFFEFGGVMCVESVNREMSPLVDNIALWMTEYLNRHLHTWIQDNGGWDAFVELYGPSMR", "assay": "ELISA: Alphabody (500 nM) captured by anti-V5 antibody, five-fold dilutions of GST-BCL-2a, anti-GST-HRP detection; printed as 'binding affinity'"}, "[4]": {"biological_target": "T3, GST-tagged recombinant human BCL-XL with a C-terminal deletion of 24 amino acids (human, UniProt Q07817 1-209)", "T3 construct": "Produced in E. coli and purified by the GST tag; not shown: Glutathione S Transferase (GST) tag at the N-terminus", "T3 sequence (Q07817 1-209, stated change not applied, form in doubt)": "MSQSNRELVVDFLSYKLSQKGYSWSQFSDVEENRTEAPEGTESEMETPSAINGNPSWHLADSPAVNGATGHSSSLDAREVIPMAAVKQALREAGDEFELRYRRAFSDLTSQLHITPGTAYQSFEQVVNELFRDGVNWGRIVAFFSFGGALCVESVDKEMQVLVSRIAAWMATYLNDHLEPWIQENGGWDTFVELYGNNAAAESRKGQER", "assay": "ELISA: Alphabody (500 nM) captured by anti-V5 antibody, five-fold dilutions of GST-BCL-XL, anti-GST-HRP detection; printed as 'binding affinity'"}, "[5]": {"biological_target": "T3, GST-tagged recombinant human BCL-XL …", "assay": "ELISA: Alphabody (500 nM) captured by coated anti-V5 antibody; five-fold dilutions of GST-BCL-XL detected with anti-GST antibody-HRP; OD 492/630 nm", "procedure": "(§3) Alphabody (500 nM) was captured by immobilized anti-V5 antibody (5 microg/ml) to a microtiterplate. Binding of five-fold dilutions of Glutathione S transferase (GST)-tagged recombinant BCL-2 family proteins MCL-1, BCL-XL and BCL-2a was detected using a anti-GST antibody conjugated to Horse Radish Peroxidase. Plates were read at 492 nm and 630 nm.\nas §2"}, "[6]": {"biological_target": "T1, GST-tagged recombinant human MCL-1 …", "assay": "ELISA: Alphabody (500 nM) captured by coated anti-V5 antibody; five-fold dilutions of GST-tagged protein detected with anti-GST antibody-HRP; OD 492/630 nm", "procedure": "as §3, §2"}, "[7]": {"biological_target": "T3, GST-tagged recombinant human BCL-XL …", "assay": "ELISA: Alphabody (500 nM) captured by coated anti-V5 antibody; five-fold dilutions of GST-tagged protein detected with anti-GST antibody-HRP; OD 492/630 nm", "procedure": "as §3, §2"}, "[8]": {"biological_target": "T4, MCL-1 in MCL-1 transfected HEK cell lysate (Santa Cruz) (UniProt Q07820 1-350, limits assumed)", "T4 construct": "The target was spotted as a whole cell lysate on nitrocellulose, not as purified protein; also called MCL-1 cell lysate; Mcl-1 cell lysate", "T4 sequence (Q07820 whole entry)": "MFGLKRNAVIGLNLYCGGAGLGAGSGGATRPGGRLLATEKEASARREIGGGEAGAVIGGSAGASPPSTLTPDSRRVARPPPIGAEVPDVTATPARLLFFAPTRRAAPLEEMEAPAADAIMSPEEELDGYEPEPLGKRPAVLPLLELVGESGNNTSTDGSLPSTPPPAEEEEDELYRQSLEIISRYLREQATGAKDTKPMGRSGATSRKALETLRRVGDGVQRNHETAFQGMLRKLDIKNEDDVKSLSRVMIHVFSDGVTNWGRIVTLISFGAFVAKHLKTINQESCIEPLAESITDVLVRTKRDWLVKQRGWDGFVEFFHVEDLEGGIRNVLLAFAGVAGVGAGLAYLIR", "assay": "dot blot: MCL-1 transfected HEK cell lysate spotted on nitrocellulose, incubated with Alphabody, detected with anti-His antibody-HRP"}}}
{"binder": "MB23_hiR-V5 (designed binder, Cationized Alphabody directed against IL-23, used as the negative control; also called control Alphabody MB23_hiR-V5; cationized MB23) MSIEQIQKEITTIQEVIAAIQKYIYTMTGGSGGSGGMSIQQIQAAIRRIQRAIRRIQRAIRRMTGSGGGGSGMSIEEIQKQIAAIQEQIVAIYKQIMAMASHHHHHHGKPIPNPLLGLDST", "values": [{"measurement": "binding result", "setting": "[1]", "value": "no binding (tested: 200 nM)"}]}
{"binder": "AB1_pan_hiKR3-V5 (designed binder, Cationized Alphabody with C-terminal His-tag and V5 tag) MSIEEIQKQFKRIQKQIKRIAKQIKRMTGGSGGSGGMSIEEIAAQIAAIQLRIIGDQFNIYYMTGSGGGGSGGSIEEIKKSIRAIQKEIKKIQKKIKKMTPHHHHHHHHHHGKPIPNPLLGLDST", "values": [{"measurement": "Kd", "setting": "[2]", "value": "~1.9", "unit": "nM"}, {"measurement": "Kd", "setting": "[3]", "value": "~18.7", "unit": "nM"}, {"measurement": "Kd", "setting": "[4]", "value": "~4.5", "unit": "nM"}, {"measurement": "EC50 (read off the curve)", "setting": "[1]", "value": "~2", "unit": "nM"}, {"measurement": "EC50 (read off the curve)", "setting": "[5]", "value": "~4", "unit": "nM"}, {"measurement": "EC50 (read off the curve)", "setting": "[6]", "value": "~2", "unit": "nM"}, {"measurement": "EC50 (read off the curve)", "setting": "[7]", "value": "~4", "unit": "nM"}]}
{"binder": "AB1_A2aF_hiKR3-V5 (designed binder, Cationized MCL-1 Alphabody with C-terminal His-tag and V5 tag) MSIQQIQKQFKRIQKQIKRIEKQIKRMTGGSGGSGGMSIEEITKQIAAIQLRIVGDQVQIYAMTGGSGGGSGGGSGGGSGGSIEEIKKSIRAIQKEIKKIQKKIKKMTPHHHHHHHHHHGKPIPNPLLGLDST", "values": [{"measurement": "Kd", "setting": "[2]", "value": 1, "unit": "nM"}, {"measurement": "EC50 (read off the curve)", "setting": "[1]", "value": "~1", "unit": "nM"}]}
{"binder": "tat-013 Alphabody (designed binder, also called tat-tagged control Alphabody scAB013) YGRKKRRQRRRMSIEEIQKQIAAIQKQIAAIQKQIYAMTGGSGGGSGGGSGGGSGMSIEEIQKQIAAIQKQIAAIQKQIYAMTGGSGGGSGGGSGGGSGMSIEEIQKQIAAIQKQIAAIQKQIYAMTP", "values": [{"measurement": "binding result", "setting": "[8]", "value": "no binding (tested: 10 uM)"}]}
